From patent US20220112288A1 (published 2022)
Changes are numbered by the printed parent chain.

B1: 75110_01A06A (antibody, V domains shown)
VH: EVQLVESGGGLVQPGGSLRLSCAASGFTFSSYWMSWVRQAPGKGLEWVANINEDGNEKYYVDSVKGRLTISRDNAKNSLYLQMNSLRAEDTAVYFCAREGGQWLSLDYWGQGALVTVSS
VL: DIQMTQSPSSVSASVGDRVSITCRASQGISSWLAWYQQKPGKAPKILIYGASSLQSGVPSRFSGSGSGTDFTLTISSLQPEDFATYYCQQANSFPWTFGQGTKVEIK
notes: Tested as clonal hybridoma supernatant of an AlivaMab Mouse Kappa hybridoma (detected with anti-mouse Fc); Kappa light chain; also called Sib2.1
B2: 75110_02N15A (antibody, V domains shown)
VH: B1 VH with L68F, Y80F, S105A, Y108H
VL: B1 VL with S20T, I46F, Y49S, I106F
notes: Tested as clonal hybridoma supernatant (AlivaMab Mouse Kappa; anti-mouse Fc detection); also called Sib2.3
B3: 75110_03D16A (antibody, V domains shown)
VH: B1 VH with E53Q, N56G, L68F, F95Y, A97V, S105A, A113T
VL: B1 VL with S20T, A34T, I46F, G50A, S67F
notes: Tested as clonal hybridoma supernatant (AlivaMab Mouse Kappa; anti-mouse Fc detection); also called Sib2.5
B4: 75110_01C18A (antibody, V domains shown)
VH: EVQLVESGGGLIQPGGSLRLSCAASGFTVSSNYMNWVRQAPGKGLEWVSVIYAGDNTYSADSVKGRFTISRDNSNNTLCLQMNSLRAEDTAVYYCAREGGTTGAFDIWGQGTMVTVSS
VL: B1 VL with S20T, S30N, I46L, G50A, A91G, W96Y, V104L
notes: Tested as clonal hybridoma supernatant (AlivaMab Mouse Kappa; anti-mouse Fc detection)
B5: 75110_01D24A (antibody, V domains shown)
VH: QVQLQQWGAGLLKPSETLSLTCAVYGGSFSGYYWSWIRQPPGKGLEWIGEINHSGSTNYNPSLKSRVTISVDTSENQFSLKLNSVTAADTAVYYCARLVNWFDPWGQGTLVTVSS
VL: EIQMTQSPSSVSASVGDRVTITCRASQDISNWLAWYQQKPGKAPNLLIFAASSLQTGVPSRFSGSGSGTDFTLTISSLQPDDFATYYCQQANSFPYSFGQGTNLGIK
notes: as for B4
B6: 75110_01N04A (antibody, V domains shown)
VH: EVQLVESGGGLVQPGGSLRLSCAASGFTFSNYDMHWVRQATGKGLEWVSTIGTAGDTYYPGSVKGRFTISRENAKNSLYLQMNSLRAGDTAVYYCARGGDFYYGLDVWGQGTTVTVSS
VL: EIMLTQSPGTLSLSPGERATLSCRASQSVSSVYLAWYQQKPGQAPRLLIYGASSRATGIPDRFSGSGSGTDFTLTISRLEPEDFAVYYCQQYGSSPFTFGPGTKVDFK
notes: Tested as clonal hybridoma supernatant (AlivaMab Mouse Kappa; anti-mouse Fc detection); also called Sib1.13
B7: 75110_01E08A (antibody, V domains shown)
VH: B6 VH with S30N, G61A, S70Y, F101Y, L105M
VL: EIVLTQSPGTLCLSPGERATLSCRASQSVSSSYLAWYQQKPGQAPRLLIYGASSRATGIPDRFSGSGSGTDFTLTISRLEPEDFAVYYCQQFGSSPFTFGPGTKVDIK
notes: Tested as clonal hybridoma supernatant (AlivaMab Mouse Kappa; anti-mouse Fc detection); also called Sib1.11
B8: 75110_08D24A (antibody, V domains shown)
VH: QVQLQESGPGLVKPSETLSLTCTVSGGSISGFYWSWIRQPAGKGLEWIGRIYTSENTNYNPSLKSRVTMSVDTSKNQFSLKLSSVTAADTAVYYCARDREGYYYYGMDVWGQGTTVTVSS
VL: DIQMTQSPSSLSASVGDRVTITCQASQDISNYLNWYQQKPGKAPKLLIYAASNLETGVPSRFSGSGSGTDFTFTISSLQPEDIATYYCQQYDSLPITFGQGTRLEIK
B9: 75110_06E14A (antibody, V domains shown)
VH: B8 VH with G31N, F32Y, Y33F, T53S, E55G, G101D
VL: B8 VL with A50G, N53I, S63T
B10: 75110_08M20A (antibody, V domains shown)
VH: B8 VH with G8D, G31S, F32Y, T53A, E55G, N56S
VL: B8 VL with N31K, K45N, T85A
B11: 75110_06G04A (antibody, V domains shown)
VH: QVQLLESGPGLVKPSETLSLTCTVSGGSISSYYWSWIRQPAGKGLEWIGRIYISGSTNYNPSLKSRVTMSIDTSENQFSLNLSSVTAADTAVYYCARELERPYYYGMDVWGQGTTVTVSS
VL: B8 VL with A50N, N53T, S93N, I96L, Q100G, R103K, L104V, I106F
B12: 75110_06K03A (antibody, V domains shown)
VH: B11 VH with L5Q, S31T, Y52N, I53T, N58T, I71V, E75K, N81K, P102Y
VL: B8 VL with A50Y, N53I, I96L, Q100G, R103K, L104V
B13: 75110_07B16A (antibody, V domains shown)
VH: B5 VH with P40S, H53Q, E75K, N76D, N83S, L98V, V99I, P104S, T109S
VL: B1 VL with S20T, I46L, G50D, L54F, P80T, E81D, W96Y, V104L
B14: 75110_08H11A (antibody, V domains shown)
VH: B6 VH with N31S, D100Y, F101S, L105M
VL: EIVLTQSPGTLSLSPGERATLSCGASQSVSSTYLAWYQQKPGQAPRLLIYGASSRATGIPDRFSGSGSGTDFTLTISRLEPEDFAVYYCQQFGSSPFTFGPGTKVDIK
B15: 75110_07E04A (antibody, V domains shown)
VH: B6 VH with A24V, N31S, N76K, S77F, D100Y, F101Y, L105M
VL: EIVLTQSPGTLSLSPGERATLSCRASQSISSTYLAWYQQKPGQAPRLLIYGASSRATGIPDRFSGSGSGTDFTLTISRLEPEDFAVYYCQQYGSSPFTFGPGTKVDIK
B16: 75110_08H06A (antibody, V domains shown)
VH: B6 VH with D100Y, F101D, L105M
VL: B14 VL with G24R, V29I, S30T, T32I, Q38R, F92Y
B17: 75110_08K12A (antibody, V domains shown)
VH: B6 VH with N31S, K75E, V92L, G99D, D100Y, F101Y, L105M
VL: B14 VL with G24R, S54N, S94T
B18: 75110_10L22A (antibody, V domains shown)
VH: B6 VH with N31S, S84G, G99N, D100Y, L105V
VL: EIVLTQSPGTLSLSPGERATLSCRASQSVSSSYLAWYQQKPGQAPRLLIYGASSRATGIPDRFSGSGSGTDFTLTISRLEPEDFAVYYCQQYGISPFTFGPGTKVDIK
B19: 75110_10N21A (antibody, V domains shown)
VH: B6 VH with N31S, A40V, D100Y, F101Y, L105M
VL: B14 VL with G24R, V29F, S30I, T32S, E80D, F92S, S94N, I107V
B20: 75110_09N20A (antibody, V domains shown)
VH: B1 VH with N56S, L68F, F95Y, A97V, S105A, A113T
VL: B1 VL with S20T, I46L, G50A, R61S, S76N, E105A
B21: 75110_07H07A (antibody, V domains shown)
VH: B1 VH with L4V, N52K, D54E, N56S, L68F, F95Y, A97V, S105A, A113T
VL: B1 VL with A13G, S20T, I46L, Y49F, E105Q
B22: 75110_09G15A (antibody, V domains shown)
VH: B1 VH with S31D, E53Q, N56S, Y60S, L68F, V93I, Y94F, F95Y, S105A, A113T
VL: B1 VL with S20T, I46L, S76N, A84T, S93I
B23: 75110_07J02A (antibody, V domains shown)
VH: EVQLVESGGGLVQPGGSLRLSCAASGFTFSSYWMSWVRQAPGKGLEWVANIKEDGSEKYYVDSVKGRFTISRDNAKNSLYLQMNSLRAEDTAVYYCARDGSYSGYGMDVWGQGTTVTVSS
VL: AIQMTQSPSSLSASVGDRVTITCRASQGIRNDLGWYQQKPGKAPKLLIYAASSLQSGVPSRFSGRGSGTDFALTISSLQPEDFATYYCLLDYNYPYTFGQGTRLEIK
B24: 75110_07J24A (antibody, V domains shown)
VH: QAQLQESGPGLVKPSETLSLTCTVSGGSISSYYYNWIRQPAGKGLEWIGRIYTSGRTDYNPSLKSRVTMSADTSKNQFSLKLSSVTAADTAVYYCARDEGPTDAFDIWGQGTMVTVSS
VL: DIVMTQTPLSLPVTPGEPASISCRSSQSLLDSDDGNTYLDWYLQKPGQSPHLLIYTLSYRASGVPDRFSGSGSGSDFTLKISRVEAEDVGVYYCMQRIEFPFTFGPGTKVDIK
B25: 75110_07N04A (antibody, V domains shown)
VH: QVQLQESGPGLVKPSETLSLTCSVSGVSSTSFYWSWIRQPAGKGLDWIGRIYTSGSTNYNPSLKSRVTMSVDTSKNQFSLKLSSVTAADTAVYYCARDPGYSDAFAIWGQGTMVTVSS
VL: not shown
B26: 75110_08A13A (antibody, V domains shown)
VH: B23 VH with T28I, E53Q, V61M, G100N, S103Y, G104Y
VL: B23 VL with N31D, Y49F, R61S, R65S, A72T, L90H, D91H, R103K
B27: 75110_08F20A (antibody, V domains shown)
VH: QVQLQESGPGLVKPSETLSLTCSVSGGSISTYYWSWIRQPAGKGLEWIGRICTTENTNYNPSLKSRVTMSIDSSKNQFSLKLSSVTAADTAVYYCARDLERLNYYGMDVWGQGATVTVSS
VL: B8 VL with N31K, K42I, A50D, I83F
B28: 75110_08G08A (antibody, V domains shown)
VH: B27 VH
VL: B8 VL with K42I, A50D
B29: 75110_10K21A (antibody, V domains shown)
VH: EVQLVESGGGLVQPGGSLRLSCAASGFTFSSYWMTWVRQAPGKGLEWVANIKQDGSEKYYVDSVKGRFTISRDNAKNSLYLQMNSLRAEDTAVYYCVRDRYDALDIWGQGTMVTVSS
VL: B23 VL with G34N, R65S, A72T, P80A, L90K, R103K

Key:
[1] = molecular target: T1, human CD4 (human, UniProt P01730 26-458); experiment: FACS, clonal hybridoma supernatant on human PBMCs
T1 construct: whole, on cells; also called hCD4

[2] = molecular target: T2, human CD4 on human PBMCs (human, UniProt P01730 26-458); experiment: FACS, clonal hybridoma supernatant on PBMCs
T2 construct: whole, on cells; also called hCD4

Binder	% CD4 Stain [1] [%]	gMFI of CD4+ [1] [gMFI]	% CD4 Stain [2] [%]	gMFI of CD4+ [2] [gMFI]
B1	33.7	115000	–	–
B2	39	253000	–	–
B3	35.6	207000	–	–
B4	34.1	205000	–	–
B5	32.9	134000	–	–
B6	37.2	205000	–	–
B7	36.5	113000	–	–
B8	–	–	33.6	332000
B9	–	–	31.7	225000
B10	–	–	34.1	343000
B11	–	–	34.8	307000
B12	–	–	34	320000
B13	–	–	37.3	189000
B14	–	–	27.1	87000
B15	–	–	36.1	141000
B16	–	–	28.1	88800
B17	–	–	34.6	175000
B18	–	–	34.3	77400
B19	–	–	38.3	203000
B20	–	–	37.5	227000
B21	–	–	37.1	204000
B22	–	–	37.3	237000
B23	–	–	33.4	228000
B24	–	–	28.8	28400
B25	–	–	33.8	104000
B26	–	–	30.3	140000
B27	–	–	33.2	307000
B28	–	–	32.2	324000
B29	–	–	29	119000
